US20230257470A1 (published 2023)
Numbering of substitutions follows the chain as printed. Numbers in names are those of the source. Each block holds one binder with its values, some of them ahead of it.

Assays:
human FcγRIIa type R = target: T1, human FcγRIIa type R (human, UniProt P12318 36-217); assay: SPR (Biacore), captured antibody, FcγR as analyte; binding amount divided by that of IL6R-F652/IL6R-L, times 100
T1 construct: also called FcγRIIaR; Fc γ RIIaR
T1 chain: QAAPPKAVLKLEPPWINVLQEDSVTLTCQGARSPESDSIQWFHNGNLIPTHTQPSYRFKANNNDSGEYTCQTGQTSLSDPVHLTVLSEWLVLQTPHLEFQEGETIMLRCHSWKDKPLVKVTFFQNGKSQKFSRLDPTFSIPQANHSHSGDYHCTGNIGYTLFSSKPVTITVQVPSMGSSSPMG

human FcγRIIb = target: T2, human FcγRIIb (human, UniProt P31994 43-217); assay: as above
T2 construct: also called FcγIIB
T2 sequence: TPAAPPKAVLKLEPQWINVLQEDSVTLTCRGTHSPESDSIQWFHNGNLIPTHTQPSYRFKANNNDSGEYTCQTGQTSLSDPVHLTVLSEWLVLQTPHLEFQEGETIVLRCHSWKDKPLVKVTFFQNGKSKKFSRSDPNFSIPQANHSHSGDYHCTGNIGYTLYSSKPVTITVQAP

RELATIVE BINDING ACTIVITY FOR FcγRIIaR (human FcγRIIa type R): 240 relative (IL6R-F652/IL6R-L = 100) | RELATIVE BINDING ACTIVITY FOR FcγRIIb (human FcγRIIb): 106 relative (IL6R-F652/IL6R-L = 100)
B1: IL6R-PD042/IL6R-L (antibody, human IgG1)
heavy: QVQLQESGPGLVKPSETLSLTCAVSGHSISHDHAWSWVRQPPGEGLEWIGFISYSGITNYNPSLQGRVTISRDNSKNTLYLQMNSLRAEDTAVYYCARSLARTTAMDYWGEGTLVTVSSASTKGPSVFPLAPSSKSTSGGTAALGCLVKDYFPEPVTVSWNSGALTSGVHTFPAVLQSSGLYSLSSVVTVPSSSLGTQTYICNVNHKPSNTKVDKKVEPKSCDKTHTCPPCPAPEWLGGDSVFLFPPKPKDTLYISRTPEVTCVVVDVSHEDPEVKFNWYVDGVEVHNAKTKPREEQYNSTYRVVSVLTVLHQDWLNGKEYKCKVSNKALPAPIEKTISKAKGQPREPQVYTLPPSRDELTKNQVSLTCLVKGFYPSDIAVEWESNGQPENNYKTTPPVLDSDGSFFLYSKLTVDKSRWQQGNVFSCSVMHEALHYHYTQKSLSLSP
light: DIQMTQSPSSLSASVGDRVTITCRASQDISSYLNWYQQKPGKAPKLLIYYTSRLHSGVPSRFSGSGSGTDFTFTISSLQPEDIATYYCQQGNTLPYTFGQGTKVEIK
notes: Alterations introduced into IL6R-F11; also called P238D/L234W

RELATIVE BINDING ACTIVITY FOR FcγRIIaR (human FcγRIIa type R): 844 relative (IL6R-F652/IL6R-L = 100) | RELATIVE BINDING ACTIVITY FOR FcγRIIb (human FcγRIIb): 139 relative (IL6R-F652/IL6R-L = 100)
B2: IL6R-PD097/IL6R-L (antibody, human IgG1)
heavy: B1 heavy with W236L, S241D
light: B1 light
notes: Alterations introduced into IL6R-F11; also called P238D/S239D

RELATIVE BINDING ACTIVITY FOR FcγRIIaR (human FcγRIIa type R): 268 relative (IL6R-F652/IL6R-L = 100) | RELATIVE BINDING ACTIVITY FOR FcγRIIb (human FcγRIIb): 112 relative (IL6R-F652/IL6R-L = 100)
B3: IL6R-PD086/IL6R-L (antibody, human IgG1)
heavy: B1 heavy with W236L, G239L
light: B1 light
notes: Alterations introduced into IL6R-F11; also called P238D/G237L

RELATIVE BINDING ACTIVITY FOR FcγRIIaR (human FcγRIIa type R): 175 relative (IL6R-F652/IL6R-L = 100) | RELATIVE BINDING ACTIVITY FOR FcγRIIb (human FcγRIIb): 112 relative (IL6R-F652/IL6R-L = 100)
B4: IL6R-PD043/IL6R-L (antibody, human IgG1)
heavy: B1 heavy with W236Y
light: B1 light
notes: Alterations introduced into IL6R-F11; also called P238D/L234Y

RELATIVE BINDING ACTIVITY FOR FcγRIIaR (human FcγRIIa type R): 138 relative (IL6R-F652/IL6R-L = 100) | RELATIVE BINDING ACTIVITY FOR FcγRIIb (human FcγRIIb): 101 relative (IL6R-F652/IL6R-L = 100)
B5: IL6R-PD079/IL6R-L (antibody, human IgG1)
heavy: B1 heavy with W236L, G239A
light: B1 light
notes: Alterations introduced into IL6R-F11; also called P238D/G237A

RELATIVE BINDING ACTIVITY FOR FcγRIIaR (human FcγRIIa type R): 196 relative (IL6R-F652/IL6R-L = 100) | RELATIVE BINDING ACTIVITY FOR FcγRIIb (human FcγRIIb): 109 relative (IL6R-F652/IL6R-L = 100)
B6: IL6R-PD087/IL6R-L (antibody, human IgG1)
heavy: B1 heavy with W236L, G239M
light: B1 light
notes: Alterations introduced into IL6R-F11; also called P238D/G237M

RELATIVE BINDING ACTIVITY FOR FcγRIIaR (human FcγRIIa type R): 543 relative (IL6R-F652/IL6R-L = 100) | RELATIVE BINDING ACTIVITY FOR FcγRIIb (human FcγRIIb): 124 relative (IL6R-F652/IL6R-L = 100)
B7: IL6R-PD095/IL6R-L (antibody, human IgG1)
heavy: B1 heavy with W236L, G239Y
light: B1 light
notes: Alterations introduced into IL6R-F11; also called P238D/G237Y

RELATIVE BINDING ACTIVITY FOR FcγRIIaR (human FcγRIIa type R): 593 relative (IL6R-F652/IL6R-L = 100) | RELATIVE BINDING ACTIVITY FOR FcγRIIb (human FcγRIIb): 122 relative (IL6R-F652/IL6R-L = 100)
B8: IL6R-PD094/IL6R-L (antibody, human IgG1)
heavy: B1 heavy with W236L, G239W
light: B1 light
notes: Alterations introduced into IL6R-F11; also called P238D/G237W

RELATIVE BINDING ACTIVITY FOR FcγRIIaR (human FcγRIIa type R): 117 relative (IL6R-F652/IL6R-L = 100) | RELATIVE BINDING ACTIVITY FOR FcγRIIb (human FcγRIIb): 101 relative (IL6R-F652/IL6R-L = 100)
B9: IL6R-PD081/IL6R-L (antibody, human IgG1)
heavy: B1 heavy with W236L, G239E
light: B1 light
notes: Alterations introduced into IL6R-F11; also called P238D/G237E
